Data as given in a protein production outcome set (Wang et al. 2014).

Assay: label from the status in PepcDB records
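Also: failed if final PepcDB status was selected cloned or expressed and not failed if soluble or beyond.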

For “GYAVSVRVGGKEHRHWERYDIDSDFLIPADSFDFVIGRLGPEAAIPDLSGESCEVVIDGQIVMTGIIGSQRHGKSKGSRELSLSGRDLAGFLVDCSAPQLNVKGMTVLDAAKKLAAPWPQIKAVVLKAENNPALGKIDIEPGETVWQALTHIANSVGLHPWLEPDGTLVVGGADYSSPPVATLCWSRTDSRCNIERMDIEWDTDNRFSEVTFLAQSHGRSGDSAKHDLKWVYKDPTMTLHRPKTVVVSDADNLAALQKQAKKQLADWRLEGFTLTITVGGHKTRDGVLWQPGLRVHVIDDEHGIDAVFFLMGRRFMLSRMDGTQTELRLKEDGIWTPDAYPK”, which protein production is on record?
The protein production was “not failed”.

Which protein production does the source give for “HDVIFHIRAKGKNQKLLLSAHPSYSRVHITAQAYENPSEPPMFCMLLRKHIEGGFIEKIEQAGLDRIMIFHIKSRNEIGDETVRKLYVEIMGRHSNIILTDAAENVIIDGLKHLSPSMNSYRTVLPGQDYKLPPAQDKISPLEASEDDILRHLSFQEGRLDKQIVDHFSGVSPLFAKEAVHRAGLANKVTLPKALLALFAEVKEHRFIPNITTVNGKEYFYLLELTHLKGEARRFDSLSELLDRFYFGKAERDRVKQQAQDLERFVVNERKKNANKIKKLEKTLEYSENAKEFQLYGELLTANLYMLKKGD” here?
Its protein production is “failed”.

Which protein production does the source give for “HGEQSYSIGILTDITMTKMYEVLQYKVLEALILERPLDEVMTMLCHEVERIAPEVTASILQSIGQNHLSHLAGPSLPPAYTAVISSVPISPIAGSCGTAAFRKEAVEVQDIATDPLWDNYRHLILPHGLLACWSTPIISSQGQLLGTFAFYYRQIRSPSDFHRQLVKLIANLCSLAMERELSRKQIQHLAFYDS” here?
The protein production was “failed”.

For “HKEDKEDFAELSGIAVPAEITAEDGTMFKEALLFTHRGLSGPSVLQISSFWKAGQKVSINLVPNEDIALLLERSLEKHPNQSLKNTLAKVLPKRLVEVLIERKELMDKPLKQFNPKELASVVERLENWSIAPNGTEGYRTAEVTLGGVDTDHLSSKTMECKNIKGLYFIGEVMDVTGWLGGYNFQWCWSSGFVAGQWV”, which protein production is on record?
The protein production was “failed”.

With “HLGEVQSEVVRFAVRFPSDKEQSSLLIDADAPVYDFVRLRLLNGEPVSLDLTVMPVGLVPGLTKSHLEGSVFRYVQETLGLKLMGSYRVVRAMKPGELDKQHLHCEPTDPVLEVEQVIYLEDGTPLEYAHCHYRYDHGG” as the sequence, how does the protein production read?
Its protein production is “not failed”.

With “HPHIQLLKSNRELLVTHIRNTQCLVDNLLKNDYFSAEDAEIVCACPTQPDKVRKILDLVQSKGEEVSEFFLYLLQQLADAYVDLRPWLLEIGFS” as the sequence, how does the protein production read?
The protein production was “not failed”.

With “HRMDAVEVTLFEKETRVAAHQTGHNSGVVHAGLYYLPGSLKARLCRRGVTLLQQYAENKGVAYEECGKVVVAHDSSEVARMDAIFDRAVANGVPGIRKVAGEEIPEIEPHARGVAAVHSPHTAIIDYVAVAEALAADITAAGGRVLLGREVVGLDSRTAETVVTTGQGSEVFDLVVTCAGLQSDRVALMSGEPRSPRVVPFFGDYFLLEPERSSLVKGLIYPVPDPRYPFLGVHLTKRIDGRIMLGPNAFLSF” as the sequence, how does the protein production read?
Its protein production is “failed”.

For “HVAGHHLAPTIIAADQHWLLVNWLEGDVVTHAQFIELSNNGQLAQLLTRLHHLPASGYRLDLRAQLIRYAGQIDTKRLSPSWLRLHQHFQRRSPPQPVKLAPLHMDIHPGNLLATPSGLKLIDWEYAADGDIALDIAALFRGNGWSAPQQQAFLQHYCLNEQGYPDIDRLSRQIQRWVPWVDYLMLMWFEVRWQQTGD”, which protein production is on record?
Its protein production is “failed”.

For “HYIFPHARIKITRDSKDHTVSGNGLGIRIVGGKEIPGHSGEIGAYIAKILPGGSAEQTGKLMEGMQVLEWNGIPLTSKTYEEVQSIISQQSGEAEICVRLDLNM”, which protein production is on record?
Its protein production is “not failed”.

For “HYTPKSLTEAIVAETLTPLTYFGPVEGSACKEWTLKTPAELLDLKICDPAMGSGAFLVQACRWLADRLVEAWAQAEIKGKIINVDGNVLDDLSSNELMPHDIDARINIARYLIAERCLYGIDLNPLAVELAKLSIWLVTLAKGRPFGFLDHSLRCGDSLLGIHQVNQLIELSVLTNSDDQDTLFSKDIRKAIYDASKLRQRLREMPIGDIHDIEEMERLNTEAHKRLYKAKKIADALVGEIFATGANFSAREARLKMLSLKLKESVEEDENIFMEISYQGTVKLQQELPSGRSKRIPIHWPLEFPEVFIRTCSGFDAIIGNPPFLGGRKITGVFGNLYREYLVANIAKGERGSSADLVAYFFLRSFYLLRESGCLGLIAVNSIAEGDSRQIGLERLLQSGAQIFSATPNEPWPGKAAVVTSRIHLIKGAFFGEKLLNGKKVAIISAFLSDQNEWSPKILKENLGQS”, which protein production is on record?
The protein production was “failed”.

With “IEIDSGSGFCFGVVNAIRHAEKQLEKSSDKLYCLGDIVHNTLEVERLGKKGLETIDYDAFSRLRGAKVLLRAHGEPPEIYRMAGENGVTIIDATCPVVLRLQNKIKSRYEATRSLGAQVVIYGKRGHAEVNGLVGQTEGTAIVIESEEELDKIDYTRPVILFSQTTKSLEGFGQIIDSISTRMQPGVTFEHHDTICRQVANRIPHIGAFATAHELVFFVAGEKSSNGKVLFGHCLAANPRSIFISSPEVIVPDMLVPLPASIGICGATSTPRWQMEEVASHIKAL” as the sequence, how does the protein production read?
Its protein production is “failed”.

For “IESIPMPILYKNMEGSYLGCNSKFLELSGKSREEVIGFRVGDLLDKKSAMEIEECERHLKEKGECPSHDIRFVDHRGEECFIRVYKTLLTNNFDEPVGILGFFVDMS”, which protein production is on record?
The protein production was “failed”.

With “IIAGETSIPSQGENMPAYHARPKNADGPLPIVIVVQEIFGVHEHIRDLCRRLAQEGYLAIAPELYFRQGDPNEYHDIPTLFKELVSKVPDAQVLADLDHVASWAARHGGDAHRLLITGFCWGGRITWLYAAHNPQLKAAVAWYGKLVGEKSLNSPKHPVDIAVDLNAPVLGLYGAKDASIPQDTVETMRQALRAANATAEIVVYPEADHAFNADYRASYHEESAKDGWQRMLAWFAQY” as the sequence, how does the protein production read?
Its protein production is “not failed”.

With “IIWDWNVERDRIIVHPDMKSLFGTETHKLNGPMQNWISALHHDDRERFQAVLDIILKNKKGRIDQIFRLSSGGGYYHWFSLRARPAMQKDGKITRVIGTIVNITNHKKA” as the sequence, how does the protein production read?
The protein production was “failed”.

With “ILVKNLPQDSNCQEVHDLLKDYDLKYCYVDRNKRTAFVTLLNGEQAQNAIQMFHQYSFRGKDLIVQLQPTDALLC” as the sequence, how does the protein production read?
Its protein production is “not failed”.

For “IRVAAFNVLNYDNGAEKGFPTDRGATTATEFSRQHQKIVTALKAINADVYGLMEIANNGYDEKSAIAYLTKSLGPDWKYITPPNMNRLGSDVIAVGILYNAKRVKPVNAAVVFDDQSQKNRVTMAQTFQPIHGGKFFTVIPNHLKSKGSCPEDTASTDADQLDGQGCWNPTRVKAVEQLIQWAAKNPTRVQQPNILFLGDMNSYAKEDPILAFEKANYKVLLNDEKIGQGKQAYSYVFGVSSNALGYGGAGNIDHAIADSNLYRFVKRAFVWHINADEPTALDYNEEYKTDEQKTLFYADDAYRSSDHDPVIVDLDLKESAQQGGVLNFIQQLLDWIAQLFTRT”, which protein production is on record?
The protein production was “failed”.

With “ISDRKMAEIALRESEARFRNLFESNIVGMFFASNQGEIFDANDRFLQMIGFTKEELDLGLVHWDRLTPPEYDQKDQEIIARLRNHETPEPWQKEYYRKDGSRIPVLVGVASIDVELEYTVCIVVDMT” as the sequence, how does the protein production read?
The protein production was “failed”.

For “ISEWARKEQAIRNSEANFRDIFASIKDGLLVLDEDNYICYANAQAVKLLNCTLEELVGTIGSPLEDTEFSLLVDDGTIYTVDVSVTEITWYGQTAKLVSLRDISDRKRMENQLRENQNKYYRLLENLD”, which protein production is on record?
Its protein production is “failed”.

For “ITKRNVELRVDDSLMRVYVASPKPVGVYPGIVFYSDIYQLGSPIIRLANYLAGFGYVVAAPEIFHRLEPIGLVIEPDDLGRMRGNDNARRTAIAEYDADSRAVIDFLKAETTVNANK”, which protein production is on record?
The protein production was “failed”.

For “IYLYATATGEVRQMHGITVDRERERRVPDHHQLDSDTTTHSHSVKNQEYYKLLHENDTWKLSQSLKDRPFVALNPTRKAQMLAHLCNDLLMNKAVLRQIDGSLETCAQMRKEKYMTDMKVRKYKALHMRKARIEAYERAQAEREAAMQALM”, which protein production is on record?
The protein production was “failed”.

For “KAKPVATAPIPGTPWCVVWTGDERVFFYNPTTRLSMWDRPDDLIGRADVDKIIQEPPHKK”, which protein production is on record?
The protein production was “not failed”.

Which protein production does the source give for “KALAHAKNDSVAVATDDLKEGEEIQVAFLDNNEKTKITTAEVIPLGHKISLKDIKKGENVIEYGEVIGAATKDIKRGEHVHIHNIKSLRW” here?
The protein production was “failed”.

Which protein production does the source give for “KEETEIIEGEVVEIQIDRPATGTGSKVGKLTLKTTEMETIYDLGTKMIESLTKDKVQAGDVITIDKATGKISKLGRSFTRAR” here?
The protein production was “not failed”.

With “KEYNIVITGVGGQGILTAANILGWAALRAGYKVRVGEIHGMSQRFGSVIAYVRFGEEVYGAMVPEGKADVILSFEPVEALRYINYLKKGGLVFTNARPIPPVQVSMGIARYPSLEEIKRIVEEDFGGRFLAFDAEKLAIEAGHVVTTNVVLIGALTQTPGFPLSEDHVRDVIKLNVPPKAVEINMRAFDLGVKT” as the sequence, how does the protein production read?
The protein production was “failed”.

Which protein production does the source give for “KGMIRPRGLNQQRYVKEVLSNDINFGIGPAGTGKTYLAVACAVDALEREQIRRILLVRPAVEAGEKLGFLPGDLAQKIDPYLRPLYDALYEMLGFEYVAKLIEKQVIEVAPLAYMRGRTLNNSFIILDESQNTTVEQMKMFLTRIGFGSTAVITGDITQVDLPKGTRSGLTHVIDVLKDVPGISFTHFKPKDVVRHPLVQRIVEAYERFDDQLSDGPSGNNG” here?
The protein production was “not failed”.

For “KIGKHTIKFPIFQGGMGVGISWDELAGNVAKEGALGVISAVGTGYYKNMRFVERIVAKKPFEALNFYSKKALNEIFANARKICGNNPLGANILYAINDYGRVLRDSCEAGANIIITGAGLPTNMPEFAKDFSDVALIPIISSAKALKILCKRWSDRYKRIPDAFIVEGPLSGGHQGFKYEDCFKEEFRLENLVPKVVEASKEWGNIPIIAAGGIWDRKDIDTMLSLGASGVQMATRFLGTKECDAKVYADLLPTLKKEDILLIKSPVGYPARAINTGVIKRIEEGNAPKIACVSNCVAPCNRGEEAKKVGYCIADGLGRSYLGNREEGLYFTGANGYRVDKIISVHELIK”, which protein production is on record?
Its protein production is “failed”.

Which protein production does the source give for “KISNIFEDVEFCVMSGTDSQPKPDLENRIAEFGGYIVQNPGPDTYCVIAGSENIRVKNIILSNKHDVVKPAWLLECFKTKSFVPWQPRFMIHMCPSTKEHFAREYD” here?
The protein production was “not failed”.

For “KKKVLIYGAGSAGLQLANMLRQGKEFHPIAFIDDDRKKHKTTMQGITIYRPKYLERLIKKHCISTVLLAVPSASQVQKKVIIESLAKLHVEVLTIPNLDDLVNGKLSIGQLKEVSIDDLLGRVAVTPQAELMEANIKD”, which protein production is on record?
The protein production was “not failed”.

Which protein production does the source give for “KKTEWSREEEEKLLHLAKLMPTQWRTIAPIIGRTAAQCLEHYEFLLDKAAQRD” here?
Its protein production is “not failed”.

With “KKVCVDTCVVIDGRITELIERGKLKDATIIIPEAVVSELEYQANMGREIGYKGIEELRKLIEKASEHNIKVEYYGERPTREEIFLAKSGEIDAMIRKVAKETNSILLTSDWIQYNLAKAQGIEAYFLEAAEEEVELVLD” as the sequence, how does the protein production read?
Its protein production is “not failed”.

For “KKYVDNLKETISRVEVSRDNFLTILNSLSEPIFILDREGKITFLNEIARELVQGRINPEGRPYYEIFEDYYINEMVEETIKSEEPQEGTLVTYVGNEKKYFHVKVIPVELKSGDKIFVILFHDVTKERKLDEMRREFIATVSHEL”, which protein production is on record?
The protein production was “failed”.

With “KLAYRHLIQPESAVRKLMILVNGRAENMLKWSELAYDFYHQGYDVLLFDHRGQGYSQRIIPQKGHLDEFRFYVDDMAKIIEKVTALFSYSTQHLLAHSMGALIATYYLANYDHHINKAVLSSPFYGILLKHPIRDELIITLMNILGQGERYVFGKGAYQQAHLEYNELTFCKTRMKWMNRINRKNPAINLGGPTFRWVHLCLNAIKRLPKVIPKIEIPILILQAEKEKIVDNKNLEKLTALFPNARCEVILNAKHEVLFEKDNVRRNVLKSVNHFLN” as the sequence, how does the protein production read?
Its protein production is “failed”.

Which protein production does the source give for “KLRQWLIDQIDSGKYPGLVWENEEKSIFRIPWKHAGKQDYNREEDAALFKAWALFKGKFREGIDKPDPPTWKTRLRCALNKSNDFEELVERSQLDISDPYKVYRIVPE” here?
Its protein production is “not failed”.

Which protein production does the source give for “KLYGSIFTGASKFRCKDCSAAYDTLVELTVHMNETGHYRDDNHETDNNNPKRWSKPRKRSLLEMEGKEDAQKVLKCMYCGHSFESLQDLSVHMIKTKHYQKV” here?
The protein production was “not failed”.
